{"source": "paper PMC5430790", "origin": "cited, not measured here", "key": {"[1]": {"molecular_target": "TβR-II (Homo sapiens) (UniProt P37173)", "sequence (P37173 23-166)": "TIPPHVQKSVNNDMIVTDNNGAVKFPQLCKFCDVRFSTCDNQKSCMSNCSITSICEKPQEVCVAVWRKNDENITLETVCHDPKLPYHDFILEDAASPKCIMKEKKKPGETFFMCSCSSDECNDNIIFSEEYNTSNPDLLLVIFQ"}, "[2]": {"molecular_target": "TβR-I (Homo sapiens) (UniProt P36897)", "sequence (P36897 34-126)": "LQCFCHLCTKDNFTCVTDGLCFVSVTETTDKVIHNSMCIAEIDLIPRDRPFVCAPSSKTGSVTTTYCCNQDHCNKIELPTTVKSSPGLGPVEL"}}}
{"substance": "TGF-β1 (from UniProt P01137)", "values": [{"measurement": "Kd", "setting": "[1]", "value": 0.19, "unit": "µM"}, {"measurement": "Kd", "setting": "[2]", "value": 70, "unit": "µM"}]}
